# Data published in patent publication CN113388028A (SHENZHEN FUTIAN GEWU ZHIKANG PATHOGEN RES INSTITUTE; …, dated 2021).
# B1: 重组抗体8B4 (antibody, V domains shown)
# VH: EVQLVQSGAEVKKPGSSVKVSCKASGGTFSSFSISWVRQAPGQGLEWMGRIIPVLGIANYAQEVQGRVTITADKSTSTAYMELSSLRSEDTAVYFCTTDRFVEPATGPFFDYWGQGTLVTVSS
# VL: EIVMTQSPATLSVSPGERATLSCRASQSVSSNLAWYQQKPGQAPRLLIYGASTRATGIPARFSGSGSGTEFTLTISSLQSEDFAVYYCQQYSNWLTFGGGTKVEIK
# notes: also called 8B4-Biotin
# B2: 重组抗体24G8 (antibody, V domains shown)
# VH: EVQLVESGGGLVKPGGSLRLSCAASGFTFSSYSMNWVRQAPGKGLEWVSSISSSSSFIYYADSVKGRFTISRDNAKNSLYLQMNSLRAEDTAVYYCAREVHVDTAMDAYFDYWGQGTLVTVSS
# VL: DIQMTQSPSSLSASVGDRVTITCRASQTISSYLNWYQQKPGKAPKLLIFAASSLQSGVPSRFSGSGSGTDFTLTISSLQPEDFATYYCQQSYSNPPLTFGGGTKVEIE
# notes: also called 24G8-Biotin
# How the values were obtained:
# [1] = target: S1RBD-mFc (SARS-CoV-2 S1蛋白RBD与mFc的融合蛋白) (SARS-CoV-2)
# SARS-S1 = target: T1, SARS-S1 (SARS-CoV, UniProt P59594 14-667); experiment: ELISA
# T1 construct: domain: S1
# MERS-S1 = target: T2, MERS-S1 (MERS-CoV, UniProt K9N5Q8 18-725); experiment: ELISA
# T2 construct: domain: S1
# [2] = target: S1RBD-his (SARS-CoV-2 S1蛋白RBD与His的融合蛋白) (SARS-CoV-2); experiment: BLI (Octet QKe), antibody captured on AHC sensor, S1RBD-His in solution, 1:1 fit
Binder,IC50 [1] [nM],binding result (SARS-S1),binding result (MERS-S1),Kd [2] [nM],koff [2] [s⁻¹],kon [2] [M⁻¹ s⁻¹]
B1,23.1,no binding,no binding,7.7,0.00157,204000
B2,11.4,,,1.08,0.000264,244000
